Here are results for one protein from publication PMC2599807 (Biochemistry, 2008).

This data set deals with the molecule itself. As to the kind of experiment: SEC + other: dynamic light scattering.

B1: O. brevis BxmR (CPx-ATPase metal-regulated repressor), wild-type (natural protein, Oscillatoria brevis, UniProt Q76L30 1-136, looked up)
chain: MSPKSAVNGAISQPHQENDTPTCDRAHLVDCSRVGDIQTQVLNTAKAQRMAEFFSLLGDANRLRLVSVLAKQELCVCDLAATLGMSESAVSHQLRAMRAMRLVSYRKVGRQVFYSLLDRHVLELYRAVAEHLDEES
On to B1, for which the “stoichiometry N” value stood at 2.

Broadly, the stoichiometry N is the number of molecules, sites or subunits per partner or assembly.
